The subject of one data set is clot formation in plasma. The following applies: cited from earlier work.
The conditions of data set [1]: patient with renal failure; cited from earlier work.
Data set [2] concerns clot formation in whole blood. Nature of the data set: Antidote reversal TEG of 11F7T+R9D-14T anticoagulation. The data set is classed as cell-based, human. The following applies: blood anticoagulated 1 hour with 11F7T 0.5 μM+R9D-14T 5 μM; protamine 22 μM (4-fold molar excess); average. How it is done: For the antidote reversal TEGs, whole blood was anticoagulated with a combination of the FXa (0.5 μM) and prothrombin (5 μM) aptamers for 1 hour as described, antidote (10 μL) was added, and the assay was continued until a stable clot was formed. For complete antidote reversal at one hour a 4-fold molar excess of protamine (22 μM) was added, 50 μg of CDP was added, or a 2-fold molar excess of the R9D-14T oligonucleotide (10 μM) in combination with a 3-fold molar excess of the 11F7T antidote oligonucleotide (1.5 μM) was added.
Whole blood was anticoagulated with 11F7T+R9D-14T at a dose that prevents clot formation for greater than three hours, and various antidotes were subsequently added after one hour to assess anticoagulation reversal and resulting clot formation. Both protamine and the β-cyclodextrin containing polymer (CDP) were tested for their ability to function as a universal antidote by simultaneously reversing both aptamers in combination (Oney et al, Nat Med 15:1224-8 (2009)). […] Thus, although the 11F7T+R9D-14T aptamer combination is an extremely potent anticoagulant cocktail that can mimic UFH anticoagulation in an ex vivo oxygenator circuit, the aptamer combination can be rapidly reversed with either a universal antidote or a combination of oligonucleotide antidotes.

The subject of data set [3] is clot formation in normal human platelet poor plasma. As to the kind of experiment: Activated partial thromboplastin time (aPTT) plasma clotting assay. Format: biochemical. The following applies: aPTT. The procedure: (§1) The activated partial thromboplastin time (aPTT) and prothrombin time (PT) assays were performed on a model ST4 mechanical coagulometer (Diagnostica Stago, Parsippany, N.J.) as previously described (Bompiani et al, J Thromb Haemost 10:870-80 (2012)). For the aPTT, 50 μL of normal human platelet poor plasma (PPP) was incubated with 50 μL TriniClot aPTT S (Trinity BioTech, Bray, Co Wicklow, Ireland) at 37° C. for 5 min. Aptamer(s) (5 μL) was added, and the mixture was incubated at 37° C. for another 5 min, and CaCl2 (50 μL) was added to initiate the assay. For the PT, 50 μL of normal human PPP was incubated with 5 μL of aptamer(s) at 37° C. for 5 min. TriniClot PT Excel reagent (Trinity BioTech, Bray, Co Wicklow, Ireland) (100 μL) was added to initiate the reaction. Assays with a combination of two aptamers contain an equimolar concentration of each individual aptamer, and the data shown are the total RNA concentration.
(§2) To compare the anticoagulant effect of these four aptamers, dose-response titrations were performed in several clinical plasma-based clotting assays. The activated partial thromboplastin time (aPTT) and prothrombin time (PT) are plasma clotting assays that are clinically used to probe for abnormalities in the intrinsic and extrinsic coagulation pathways, respectively (Van Cott et al, editors. Jacobs & DeMott laboratory test handbook. 5th ed. Hudson Ohio: Lexi-Comp. p. 327-58 (2001)). These relatively simple assays measure the time until clot formation in platelet poor plasma (PPP) in response to either robust tissue factor (TF), or contact stimulation via negatively charged surfaces (i.e., silica, kaolin, celite). […] At high concentrations, the prothrombin aptamer (R9D-14T) was the most robust anticoagulant and inhibited greater than 96% of prothrombin activity in the aPTT and PT. At 4 μM, R9D-14T increased the aPTT clotting time approximately 18-fold and the PT clotting time greater than 80-fold (exceeded the assay limit of 999 sec). […] At the same dose, the FIXa aptamer (9.3T) inhibited greater than 99% of FIX activity and increased the aPTT clotting time approximately 5.5-fold, while the FVIIa aptamer (7S-1) increased the PT clotting time 3-fold and inhibited greater than 99% of FVII activity (FIGS. 20A and 20B).

The test system of data set [4] is clot formation in whole human blood. As to the kind of experiment: TEG of dogbone aptamer in whole human blood. The data set is classed as cell-based. How it is done: Activity of dogbone 4 was tested using thromboelastography (TEG), an assay using whole human blood.
The subject of data set [5] is clot formation in normal human platelet poor plasma. As to the kind of experiment: Prothrombin time (PT) plasma clotting assay. The data set is classed as biochemical. The procedure: as §1, §2
Data set [6] has as its system thrombin generation in normal human platelet poor plasma. As to the kind of experiment: Calibrated automated thrombography (CAT). The data set is classed as biochemical. The conditions noted are these: TF 5 ρM. The procedure: Normal human platelet poor plasma (80 μL) was mixed with aptamer(s) (10 μL) in an Immunolon 2HB U Bottom Mictrotiter 96-well plate (Thermo Labsystems, Franklin, Mass.) and incubated at 37° C. for 5 min. PPP reagent (Diagnostica Stago, Parsippany, N.J.) (either 1 ρM or 5 ρM TF, 20 μL, Diagnostica Stago) was added, and the mixture was incubated at 37° C. for another 5 min. FluCa (Diagnostica Stago) (10 μL) was added to initiate the assay and thrombin generation was measured for 60 minutes at 37° C. with a Fluoroskan Ascent fluorometer (ThermoLabsystem, Helsinki, Finland) according to the manufacturer's instructions. The amount of thrombin generated was quantified by comparison to an assay with thrombin calibrator reagent (Diagnostica Stago) that has a known activity toward the fluorogenic substrate. The lag time, peak amount of thrombin generated, and endogenous thrombin potential (ETP) were automatically calculated by the Thrombinoscope software (Thrombinoscope BV, the Netherlands).
Thrombin is the final protease formed in the coagulation cascade, and the rate of thrombin generation and the total amount of thrombin generated is associated with blood clot formation and stability (Wolberg, Blood Rev 21:131-42 (2007)). To gain more information about the impact of aptamer anticoagulation on the kinetics of thrombin generation, the individual aptamers were analyzed with calibrated automated thrombography (CAT). The CAT assay measures real-time thrombin generation in plasma by monitoring cleavage of a thrombin-specific fluorogenic substrate in response to TF stimulation (Heruker et al, Pathophysiol Haemost Thromb 33: 4-15 (2003)). The parameters of thrombin generation analyzed include: the lag time (time until thrombin generation begins), the peak (the maximal amount of thrombin generated at a given time) and the endogenous thrombin potential (ETP, the total amount of thrombin generated). Similar to the aPTT and PT clotting assays, all of the individual aptamers dose-dependently impacted the various parameters of thrombin generation (FIG. 21 and Table 1). […] 9.3T minorly impacted all parameters of thrombin generation with the high TF reagent; however, because high concentrations of TF may bypass FIX activity by directly generating FXa, the manufacturer recommends low concentrations of TF for analyzing FIX deficient (i.e, Hemophilia B) plasma in the CAT.

For data set [7], the system named is clot formation in whole blood. As to the kind of experiment: Thromboelastography (TEG), whole blood stimulated with tissue factor. The data set is classed as cell-based, human. The procedure: Blood was drawn from healthy, consented volunteers under a Duke University Institutional Review Board approved protocol and anticoagulated with 3.2% sodium citrate. Whole blood (320 μL) was mixed with anticoagulant (heparin or aptamers) (10 μL) and kaolin (Haemonetics, Niles, Ill.) (10 μL) or CAT PRP reagent (Diagnostica Stago, 0.33 ρM TF final) (10 μL) was added to stimulate clotting. CaCl2 (20 μL) was immediately added to overcome the citrate, the mixture was added to a plain disposable plastic TEG cup (Haemonetics), and the assay was run according to the manufacturer's instructions. Clot formation at 37° C. was measured with a Thromboelastograph Analyzer (Haemonetics, Niles, Ill.) until a stable clot was formed (i.e., a maximum amplitude was reached) or for three hours with the aptamer combinations. The time lag time, α-angle, and maximum amplitude were automatically calculated by the TEG® Analytical Software version 4.2.3 (Haemonetics).
Because kaolin stimulates blood via the intrinsic pathway, it is unlikely that 7S-1 (FVIIa aptamer) would impair clot formation with this type of stimulation; thus, this aptamer was tested in a modified TEG with TF stimulation. CAT platelet rich plasma (PRP) reagent (TF) was diluted to a final concentration of 0.33 ρM TF to stimulate clotting.

The subject of data set [8] is clot formation in whole blood. As to the kind of experiment: TEG of whole blood, coagulation triggered by tissue factor (Example I). Format: cell-based. The conditions noted are these: TF; FVIIa aptamer 0.5, FIXa aptamer 1.0, FXa aptamer 1.0 micromolar. How it is done:
TEG is a waveform generated from serial measurements of the torque transmitted from a small oscillating cup to the tip of a metal pin inserted into the cup by a 360 microliter sample of blood or plasma added to the cup.
A 360 microliter blood sample has been added to the cup. For 180 minutes after the sample is added, the cup oscillates alternatively clockwise and counterclockwise through an arc of 4° 45′ at a frequency of one oscillation cycle—i. e., one clockwise rotation and one counterclockwise rotation—every 10 seconds. The lower end of the pin is immersed by the sample; the upper end is suspended from a torsion wire. The TEG analyzer records a single measurement of rotation-induced torque after each clockwise rotation and after each counterclockwise rotation of the cup. “The torque of the rotating cup is transmitted to the immersed pin only after fibrin-platelet bonding has linked the cup and [the] pin together. The strength of these fibrin-platelet bonds affects the magnitude of the pin motion, such that strong clots move the pin directly in phase with the cup motion. Thus, the magnitude of the output is directly related to the strength of the formed clot . . . . [If] the clot retracts or lyses, these bonds are broken and the transfer of cup motion is diminished. The rotation movement of the pin is converted by a mechanical-electrical transducer to an electrical signal which can be monitored by a computer” (TEG 5000 User Manual, pp 3-4, 1999-2007)). The computer converts the series of electrical signals into the TEG tracing.

Values joined by “and” are separate entries in the source; they are usually repeats but may differ in a detail not shown here. Equal values may be shown once. Read-outs that look alike come from different tables or passages of the source. Strand notation (5' to 3'): a small letter for the sugar, then the base; units joined by * are phosphorothioate-linked, units joined directly phosphodiester-linked; [ ] holds rarer units or linkages, { } end groups; capitals alone tell only the bases. r = 2'-OH (RNA); f = 2'-fluoro

In the case of `CC1CNc2c(cccc2S(=O)(=O)N[C@@H](CCCNC(=N)N)C(=O)N2CC[C@@H](C)C[C@@H]2C(=O)O)C1` (stereo partly drawn) [argatroban], the “clot propagation and strength (in words)” value with clot formation in plasma (concentration ten-fold higher than recommended for CPB) is “did not significantly reduce clot propagation and strength”.
In the case of lepirudin, the “time the drug can remain in the circulation” value in [1] was above 120 h. Besides, in the data set on clot formation in plasma (10 micrograms/mL, approximately 1.4 micromolar), the “clot propagation and strength (in words)” value is “significantly reduce clot propagation and strength”.
With protamine, in [2], the “time to stable clot formation after antidote” value is at most 15 min.

B1: 4G dogbone 4: truncate of FX/FII dogbone 4, SEQ ID NO: 24 (nucleic acid)
chain: GGGGAUCACACAGUUCAAACGUAAUAAGCCAAUGUACGAGGCAGACCCCAAAGCCCCAGCGAGAUAAUACUUGGCCCCGCU
modifications: listed as RNA, chemistry not given here
As to B1, the “anti-coagulation activity of dogbone 4 truncates (in words)” value in data set [3] is reported as “best anti-coagulation activity of the truncates”.

B2: FX/FII dogbone 4: FX/FII dogbone aptamer of reduced size, SEQ ID NO: 22 (nucleic acid)
chain: GUCGAUCACACAGUUCAAACGUAAUAAGCCAAUGUACGAGGCAGACGACAAAGCCCCAGCGAGAUAAUACUUGGCCCCGCU
modifications: listed as RNA, chemistry not given here
With B2, the “activity compared to the free combination of aptamers (in words)” value in data set [4] is “comparable or better activity than the free combination of aptamers”; in data set [4] (listed as Dogbone Aptamer 4), “inhibits clot formation as well as the combination of individual Factor II (R9D-14T) and X (11f7T) aptamers”.

B3: 7S-1: FVIIa aptamer, 2'-fluoropyrimidine modified RNA, SEQ ID NO: 5 (nucleic acid)
chain: rGrGrGrArGrGrAfCrGrAfUrGfCrGrGrAfCfUfCfCfUfCfCrArArGfCrGrAfCfCrArAfCrAfUfCrGrGfUfCfCfCrGfUfUfUfCrArGrAfUfCrArAfCrArGrAfCrGrAfCfUfCrGfCfUrGrArGrGrAfUfCfCrGrArGrA
For B3, the “increase of PT clotting time” value in data set [5] (4 μM aptamer) is on record as 3 fold. For the same molecule, the FVII activity inhibited result in [5] (PT, 4 μM) is on record as “greater than 99%”. The ETP in [6] (RNA 1.25 nM) was 1657.33 ± 42.72 nM·min; in data set [6] (RNA 2.5 nM), 1603.50 ± 28.00 nM·min; in [6] (RNA 5 nM), 1656.20 ± 96.89 nM·min; in data set [6] (RNA 10 nM), 1339.50 ± 21.15 nM·min; in data set [6] (RNA 30 nM), 1523.50 ± 160.63 nM·min. Also, the Lag-time in [6] (RNA 1.25 nM) was determined as 1.67 ± 0.19 min; in data set [6] (RNA 2.5 nM) it was 2.00 ± 0.17 min; in data set [6] (RNA 5 nM) it was 3.17 ± 0.19 min; in data set [6] (RNA 10 nM), 4.51 ± 0.42 min; in data set [6] (RNA 30 nM), 6.01 ± 0.44 min; in data set [7] (RNA 0.12 μM), 4.5 ± 0.6 min. Besides, the Lag-time was 5.1 ± 1.2 min in data set [7] (RNA 0.25 μM); 6.6 min and 6.6 ± 0.8 min in [7] (RNA 0.50 μM). Also, the Peak in data set [6] (RNA 1.25 nM) came out at 314.56 ± 14.17 nM; in data set [6] (RNA 2.5 nM), 274.39 ± 29.71 nM; in data set [6] (RNA 5 nM), 238.68 ± 31.03 nM; in [6] (RNA 10 nM), 130.54 ± 14.06 nM; in [6] (RNA 30 nM) it was 199.25 ± 41.13 nM. Moreover, the TTP in data set [6] (RNA 1.25 nM) was 4.28 ± 0.20 min; in [6] (RNA 2.5 nM) it was 5.29 ± 0.55 min; in [6] (RNA 5 nM), 7.34 ± 0.55 min; in data set [6] (RNA 10 nM), 11.01 ± 0.79 min; in [6] (RNA 30 nM) it was 10.80 ± 1.03 min. Further, the Angle in data set [7] (RNA 0.12 μM) was 65.2 ± 5.2 deg; in [7] (RNA 0.25 μM), 62.4 ± 3.7 deg; in data set [7] (RNA 0.50 μM) it was 61.9 deg and 61.9 ± 3.3 deg. In addition, the “Max. Amplitude” value in [7] (RNA 0.12 μM) is 63.0 ± 3.7 mm; in [7] (RNA 0.25 μM) it was 64.0 ± 2.8 mm; in data set [7] (RNA 0.50 μM) it was 63.1 mm and 63.1 ± 2.0 mm. Also, in data set [8], the “clot formation (in words)” value is listed as “none of those aptamers prevented clot formation”.

Source of the values: patent publication US9687529B2, “Method of controlling coagulation” (Duke University, priority 2011, dated 2017).
